Measured values as given in publication PMC9158119 (Frontiers in Immunology, 2022).

B1: Nb-007 (VHH)
VHH: QLQLVESGGGLVQAGGSMRLSCAASISFSSFPMGWHRQAPGKQRELVAKTGIGGTAYDDSVKGRFTISRDNTKNTVYLQMNSLKVEDTAVYYCWGWRMNDYWGQGTQVTVSS
B2: Nb-008 (VHH)
VHH: EVQVVESGGGLVQAGGSLRLSCAASGSTSNLRVTGWYRQTPGKQRELVAAISNAGATVYPDSVAGRFTLSRDNAKNTVTLQINSLKPEDTAVYYCNARRFGRDYWGQGTQVTVSS
B3: Nb-001 (VHH)
VHH: EVQLVESGGGLVQAGGSLRLSCAASGSIFRLYTIDWYRQAPGKQRELVATISGTSPTNYADSVKGRATISRDNAKNTVYLQINSLKPEDTAVYYCHTVSGNTWGQGTQVTVSS
B4: Nb-002 (VHH)
VHH: EVQLVESGGALVQPGGSLRLSCAASGFTLDAAAIGWFRQAPGKEREWVSCINRVGGGFYSDSAKGRFTISRDNDKNTVYLQMNSLKFEDTAVYYCAADSDSPRFGCSDSRARYEYWGQGTQVTASS
B5: Nb-005 (VHH)
VHH: EVQLVESGGGLVQAGGSLRLSCAASGSAFNDYAMGWYRQAPGKQRELVARFTNVGATLSSNSVKGRFTISRDNAKNTVFLQMNSLKPEDTAVYYCHAGHRILLGREYWGQGTQVTVSS
B6: Nb-010 (VHH)
VHH: EVQVVESGGGLVQAGGSLRLSCTASGSTFTRYPMGWYRQAPGKQRELVAGFTVVGATIYADSVKGRFALSRDNAKKTIDLQLDSLKPDDTGVYYCSMYTYWGQGTQVTVSS
B7: Nb-004 (VHH)
VHH: QLQLVESGGGLVQAGGSLGLSCAASGITLGDYRMGWYRQAPGKQRELVARFTNAGAILYGDSVKGRFTISMNNAKNTVYLQINSLKPEDTAVYYCNARTTRGIDNWGQGTQVTVSS
B8: Nb-003 (VHH)
VHH: EVQVVESGGGLVQAGGSLRVSCAASGSTSSRYIMAWYRQAPGKQRELVASITLVGATIYKDSVKGRFTISGDNAKKTVYLQMNNLKPEDTAVYYCNQIDPLIGGPGYWGQGIQVTVSS
B9: Nb-006 (VHH)
VHH: QVQLVESGGGLVQAGESLRLSCAASGSTVSPYTMGWYRQAPGKQREWVATIRSDRSTNYADSVLGRFTISRDNAKNTVYLQMNSLKPEDTAVYQCYALQGGLLLGQGTQVTVSS

Target: T1, SARS-CoV-2 original strain spike receptor-binding domain (S-RBD) (SARS-CoV-2, UniProt P0DTC2)
Experiment: SPR
Settings: both partners purified

**Q.** How did the Kd turn out when B1 was run?
**A.** 0.0674 nM

Target: T1, SARS-CoV-2 original strain spike …
Experiment: not given
Settings: not given

**Q.** Does B2 bind?
**A.** binds

**Q.** Does B3 bind?
**A.** binds

**Q.** Does B4 bind?
**A.** binds

**Q.** Does B5 bind?
**A.** binds

**Q.** Does B6 bind?
**A.** binds

**Q.** Does B7 bind?
**A.** binds

**Q.** Does B8 bind?
**A.** binds

**Q.** Does B9 bind?
**A.** binds
